# Assay: In vivo uptake and tissue distribution of 125I-TGFα from TJ-TGFα formulation on wounded cheek pouch
# Set-up: species or system Golden Syrian hamsters
# Conditions: for Distribution of 125I-TGFα in the Tissues: Skin: 25 cm^2 skin on back; for Distribution of 125I-TGFα in the Tissues: Blood / Distribution of 125I-TGFα in the Tissues: Cecum / Distribution of 125I-TGFα in the Tissues: Colon / Distribution of 125I-TGFα in the Tissues: Esophagus / Distribution of 125I-TGFα in the Tissues: Kidney / Distribution of 125I-TGFα in the Tissues: Liver / Distribution of 125I-TGFα in the Tissues: Small Intestine / Distribution of 125I-TGFα in the Tissues: Stomach / Distribution of 125I-TGFα in the Tissues: Submaxillary Gland / Distribution of 125I-TGFα in the Tissues: Thyroid / Distribution of 125I-TGFα in the Tissues: Tongue: cheek pouch wound; for Distribution of 125I-TGFα in the Tissues: Cheek Pouch: right-hand side cheek pouch (application site)
# Source text: The TGFα-containing ointment composition of Example 2 (TJ-TGFα formulation) was subjected, both in vitro and in vivo, to evaluation to meet the therapeutical requirements for oral mucositis. The in vitro evaluation included TGFα release and extraction from the composition, autoclave sterilizability and the bioactivity and stability of TGFα in the composition. The in vivo evaluation included TGFα uptake and tissue distribution of absorbed TGFα from hamster's cheek pouch.
# B. The in vivo uptake of TGFα from the TJ-TGFα formulation was determined in Golden Syrian hamsters, female, approximately 150 g using an ^125 I-TGFα formulation (specific activity-45 μci/μg), the hamster's cheek pouch having a mechanically created wound. A pharmacokinetic study of tissue distribution of TGFα absorbed by the hamsters was also conducted. The methods employed were as follows:
# 1. Fast hamsters overnight.
# 2. Anesthetize hamsters by I.M. injection of ketamine HCl.
# 3. Create a 2 mm diameter wound on the right-hand side of hamster's cheek pouch by a biopsy punch.
# 4. Following the removal of the debridement and blood clot, administer 20 μl TJ-TGFα formulation containing 26 μci 125I-TGFα onto the wound area by a Gilson Microman.
# 5. Keep the hamsters in their cages and give no water or food during the course of 6 hours study.
# 6. Select three hamsters at time 15 minutes, 30 minutes, 1 hour, 2 hours, 4 hours and 6 hours and select one hamster at 24 hours for TGFα uptake and tissue distribution study.
# 7. Punch a needle into the hamster's heart and withdrawn 1 ml blood by a 5 ml syringe.
# 8. Sacrifice hamster by inhalation of an overdose of carbon dioxide vapor from dry ice in a closed chamber.
# 9. Immediately after sacrificing, remove the liver, kidney, thyroid, submaxillary gland, esophagus, stomach, small intestine, cecum, colon, 25 cm^2 skin on back, tongue and right-hand side of cheek pouch.
# 11. Count the CPM of ^125 I-TGFα that distributed in the hamster's tissue and GI contents.
substance,measurement,setting,value
^125 I-TGFα: 125I-labelled TGFα (specific activity 45 μci/μg) administered in TJ-TGFα formulation onto the hamster cheek pouch wound,Distribution of 125I-TGFα in the Tissues: Skin,15 min.,0.04%
same,Distribution of 125I-TGFα in the Tissues: Blood,15 min.,0.01%
same,Distribution of 125I-TGFα in the Tissues: Cecum,15 min.,0.303%
same,Distribution of 125I-TGFα in the Tissues: Colon,15 min.,0.01%
same,Distribution of 125I-TGFα in the Tissues: Esophagus,15 min.,0.001%
same,Distribution of 125I-TGFα in the Tissues: Kidney,15 min.,0.02%
same,Distribution of 125I-TGFα in the Tissues: Liver,15 min.,0.03%
same,Distribution of 125I-TGFα in the Tissues: Small Intestine,15 min.,0.01%
same,Distribution of 125I-TGFα in the Tissues: Stomach,15 min.,0.01%
same,Distribution of 125I-TGFα in the Tissues: Submaxillary Gland,15 min.,0.02%
same,Distribution of 125I-TGFα in the Tissues: Thyroid,15 min.,0.005%
same,Distribution of 125I-TGFα in the Tissues: Tongue,15 min.,0.85%
same,Distribution of 125I-TGFα in the Tissues: Cheek Pouch,15 min.,76%
same,Distribution of 125I-TGFα in the Tissues: Skin,0.5 hrs.,0.06%
same,Distribution of 125I-TGFα in the Tissues: Blood,0.5 hrs.,0.02%
same,Distribution of 125I-TGFα in the Tissues: Cecum,0.5 hrs.,0.01%
same,Distribution of 125I-TGFα in the Tissues: Colon,0.5 hrs.,0.02%
same,Distribution of 125I-TGFα in the Tissues: Esophagus,0.5 hrs.,0.01%
same,Distribution of 125I-TGFα in the Tissues: Kidney,0.5 hrs.,0.07%
same,Distribution of 125I-TGFα in the Tissues: Liver,0.5 hrs.,0.07%
same,Distribution of 125I-TGFα in the Tissues: Small Intestine,0.5 hrs.,0.05%
same,Distribution of 125I-TGFα in the Tissues: Stomach,0.5 hrs.,0.03%
same,Distribution of 125I-TGFα in the Tissues: Submaxillary Gland,0.5 hrs.,0.05%
same,Distribution of 125I-TGFα in the Tissues: Thyroid,0.5 hrs.,0.02%
same,Distribution of 125I-TGFα in the Tissues: Tongue,0.5 hrs.,3.13%
same,Distribution of 125I-TGFα in the Tissues: Cheek Pouch,0.5 hrs.,30%
same,Distribution of 125I-TGFα in the Tissues: Skin,1 hr.,0.03%
same,Distribution of 125I-TGFα in the Tissues: Blood,1 hr.,0.04%
same,Distribution of 125I-TGFα in the Tissues: Cecum,1 hr.,0.02%
same,Distribution of 125I-TGFα in the Tissues: Colon,1 hr.,0.04%
same,Distribution of 125I-TGFα in the Tissues: Esophagus,1 hr.,0.01%
same,Distribution of 125I-TGFα in the Tissues: Kidney,1 hr.,0.07%
same,Distribution of 125I-TGFα in the Tissues: Liver,1 hr.,0.09%
same,Distribution of 125I-TGFα in the Tissues: Small Intestine,1 hr.,0.04%
same,Distribution of 125I-TGFα in the Tissues: Stomach,1 hr.,0.05%
same,Distribution of 125I-TGFα in the Tissues: Submaxillary Gland,1 hr.,0.04%
same,Distribution of 125I-TGFα in the Tissues: Thyroid,1 hr.,0.02%
same,Distribution of 125I-TGFα in the Tissues: Tongue,1 hr.,4.82%
same,Distribution of 125I-TGFα in the Tissues: Cheek Pouch,1 hr.,70%
same,Distribution of 125I-TGFα in the Tissues: Skin,2 hrs.,0.10%
same,Distribution of 125I-TGFα in the Tissues: Blood,2 hrs.,0.05%
same,Distribution of 125I-TGFα in the Tissues: Cecum,2 hrs.,0.06%
same,Distribution of 125I-TGFα in the Tissues: Colon,2 hrs.,0.06%
same,Distribution of 125I-TGFα in the Tissues: Esophagus,2 hrs.,0.01%
same,Distribution of 125I-TGFα in the Tissues: Kidney,2 hrs.,0.14%
same,Distribution of 125I-TGFα in the Tissues: Liver,2 hrs.,0.17%
same,Distribution of 125I-TGFα in the Tissues: Small Intestine,2 hrs.,0.07%
same,Distribution of 125I-TGFα in the Tissues: Stomach,2 hrs.,0.10%
same,Distribution of 125I-TGFα in the Tissues: Submaxillary Gland,2 hrs.,0.20%
same,Distribution of 125I-TGFα in the Tissues: Thyroid,2 hrs.,0.14%
same,Distribution of 125I-TGFα in the Tissues: Tongue,2 hrs.,3.57%
same,Distribution of 125I-TGFα in the Tissues: Cheek Pouch,2 hrs.,74%
same,Distribution of 125I-TGFα in the Tissues: Skin,4 hrs.,0.14%
same,Distribution of 125I-TGFα in the Tissues: Blood,4 hrs.,0.13%
same,Distribution of 125I-TGFα in the Tissues: Cecum,4 hrs.,0.04%
same,Distribution of 125I-TGFα in the Tissues: Colon,4 hrs.,0.13%
same,Distribution of 125I-TGFα in the Tissues: Esophagus,4 hrs.,0.26%
same,Distribution of 125I-TGFα in the Tissues: Kidney,4 hrs.,0.23%
same,Distribution of 125I-TGFα in the Tissues: Liver,4 hrs.,0.26%
